# Results reported in patent US20220048967A1 (published 2022).
# Numbered stars: 1 amine (or outer) side, 2 acyl side, 3 side chain; on linkers, the order of the positions; unused ones are H or OH. Square brackets hold non-standard residues; d marks the D form. Side chains are listed from the residue outwards. Ends that are not written are not given here. * marks the point of attachment. C20 diacid = O=C(O)CCCCCCCCCCCCCCCCCCC(=O)*; γGlu = O=C(O)[C@H](CCC(=O)[*:2])N[*:1]; AEEA = NCCOCCOCC(=O)O; Aib = CC(C)(N)C(=O)O
# T1: human GIP receptor (human, UniProt P48546 22-466)
# T1 sequence (looked up): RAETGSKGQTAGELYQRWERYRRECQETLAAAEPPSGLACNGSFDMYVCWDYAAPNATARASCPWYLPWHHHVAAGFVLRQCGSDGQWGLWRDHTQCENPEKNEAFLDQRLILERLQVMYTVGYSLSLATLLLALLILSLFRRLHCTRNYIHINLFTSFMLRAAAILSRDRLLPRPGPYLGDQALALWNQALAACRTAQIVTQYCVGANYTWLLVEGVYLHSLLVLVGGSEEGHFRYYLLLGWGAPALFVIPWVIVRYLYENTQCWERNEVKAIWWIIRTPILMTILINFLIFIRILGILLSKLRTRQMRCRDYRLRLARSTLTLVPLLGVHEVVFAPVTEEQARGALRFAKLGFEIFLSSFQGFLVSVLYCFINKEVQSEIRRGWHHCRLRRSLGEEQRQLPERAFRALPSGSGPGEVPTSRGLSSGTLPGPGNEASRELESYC
# Assays:
# human GIP receptor = molecular target: T1, human GIP receptor; assay: cell-based or functional assay
# human GLP-1 receptor = human GLP-1 receptor (human, UniProt P43220 24-463); assay: cell-based or functional assay
Binder,hGIPR cAMP EC50 ratio (human GIP receptor),hGIPR cAMP Rel EC50 (human GIP receptor) [nM],hGLP1R cAMP EC50 ratio (human GLP-1 receptor),hGLP1R cAMP Rel EC50 (human GLP-1 receptor) [nM]
YXEGTXTSDXSIXLDXKAQXEFIXXLIEGGPSSGAPPPS (Aib2; αMeF(2F)6; 4Pal10; αMeL13; Orn16; K17((2-[2-(2-Amino-ethoxy)-ethoxy]-acetyl)2-(γ-Glu)-CO-(CH2)16-CO2H); Aib20; D-Glu24; αMeY25; C-terminal NH2) [Example 4],5.95,0.0272,1.41,0.0297
Y[Aib]EGTFTSDASILLDKK([AEEA-AEEA-γGlu-C20 diacid])AQ[Aib]AFIEYLIEGGPSSGAPPPS-NH2 (N-terminus assumed; SMILES CC[C@H](C)[C@H](NC(=O)[C@H](CC(C)C)NC(=O)[C@H](Cc1ccc(O)cc1)NC(=O)[C@H](CCC(=O)O)NC(=O)[C@@H](NC(=O)[C@H](Cc1ccccc1)NC(=O)[C@H](C)NC(=O)C(C)(C)NC(=O)[C@H](CCC(N)=O)NC(=O)[C@H](C)NC(=O)[C@H](CCCCNC(=O)COCCOCCNC(=O)COCCOCCNC(=O)CC[C@H](NC(=O)CCCCCCCCCCCCCCCCCCC(=O)O)C(=O)O)NC(=O)[C@H](CCCCN)NC(=O)[C@H](CC(=O)O)NC(=O)[C@H](CC(C)C)NC(=O)[C@H](CC(C)C)NC(=O)[C@@H](NC(=O)[C@H](CO)NC(=O)[C@H](C)NC(=O)[C@H](CC(=O)O)NC(=O)[C@H](CO)NC(=O)[C@@H](NC(=O)[C@H](Cc1ccccc1)NC(=O)[C@@H](NC(=O)CNC(=O)[C@H](CCC(=O)O)NC(=O)C(C)(C)NC(=O)[C@@H](N)Cc1ccc(O)cc1)[C@@H](C)O)[C@@H](C)O)[C@@H](C)CC)[C@@H](C)CC)C(=O)N[C@@H](CCC(=O)O)C(=O)NCC(=O)NCC(=O)N1CCC[C@H]1C(=O)N[C@@H](CO)C(=O)N[C@@H](CO)C(=O)NCC(=O)N[C@@H](C)C(=O)N1CCC[C@H]1C(=O)N1CCC[C@H]1C(=O)N1CCC[C@H]1C(=O)N[C@@H](CO)C(N)=O) [Example 85],0.111,1.67,1.13,0.0518
Y[Aib]EGTFTSDYSILLKIAQ[Aib]AFIEYLIEGGPSSGAPPK([AEEA-AEEA-γGlu-C20 diacid])S-NH2 (N-terminus assumed; SMILES CC[C@H](C)[C@H](NC(=O)[C@H](CCCCN)NC(=O)[C@H](CC(C)C)NC(=O)[C@H](CC(C)C)NC(=O)[C@@H](NC(=O)[C@H](CO)NC(=O)[C@H](Cc1ccc(O)cc1)NC(=O)[C@H](CC(=O)O)NC(=O)[C@H](CO)NC(=O)[C@@H](NC(=O)[C@H](Cc1ccccc1)NC(=O)[C@@H](NC(=O)CNC(=O)[C@H](CCC(=O)O)NC(=O)C(C)(C)NC(=O)[C@@H](N)Cc1ccc(O)cc1)[C@@H](C)O)[C@@H](C)O)[C@@H](C)CC)C(=O)N[C@@H](C)C(=O)N[C@@H](CCC(N)=O)C(=O)NC(C)(C)C(=O)N[C@@H](C)C(=O)N[C@@H](Cc1ccccc1)C(=O)N[C@H](C(=O)N[C@@H](CCC(=O)O)C(=O)N[C@@H](Cc1ccc(O)cc1)C(=O)N[C@@H](CC(C)C)C(=O)N[C@H](C(=O)N[C@@H](CCC(=O)O)C(=O)NCC(=O)NCC(=O)N1CCC[C@H]1C(=O)N[C@@H](CO)C(=O)N[C@@H](CO)C(=O)NCC(=O)N[C@@H](C)C(=O)N1CCC[C@H]1C(=O)N1CCC[C@H]1C(=O)N[C@@H](CCCCNC(=O)COCCOCCNC(=O)COCCOCCNC(=O)CC[C@H](NC(=O)CCCCCCCCCCCCCCCCCCC(=O)O)C(=O)O)C(=O)N[C@@H](CO)C(N)=O)[C@@H](C)CC)[C@@H](C)CC) [Example 77],0.00102,135,< 3.25e-05,> 2000
Y[Aib]EGTFTSDYSILLDKIAQ[Aib]K([AEEA-AEEA-γGlu-C20 diacid])FIEYLIEGG-NH2 (N-terminus assumed; SMILES CC[C@H](C)[C@H](NC(=O)[C@H](CCCCN)NC(=O)[C@H](CC(=O)O)NC(=O)[C@H](CC(C)C)NC(=O)[C@H](CC(C)C)NC(=O)[C@@H](NC(=O)[C@H](CO)NC(=O)[C@H](Cc1ccc(O)cc1)NC(=O)[C@H](CC(=O)O)NC(=O)[C@H](CO)NC(=O)[C@@H](NC(=O)[C@H](Cc1ccccc1)NC(=O)[C@@H](NC(=O)CNC(=O)[C@H](CCC(=O)O)NC(=O)C(C)(C)NC(=O)[C@@H](N)Cc1ccc(O)cc1)[C@@H](C)O)[C@@H](C)O)[C@@H](C)CC)C(=O)N[C@@H](C)C(=O)N[C@@H](CCC(N)=O)C(=O)NC(C)(C)C(=O)N[C@@H](CCCCNC(=O)COCCOCCNC(=O)COCCOCCNC(=O)CC[C@H](NC(=O)CCCCCCCCCCCCCCCCCCC(=O)O)C(=O)O)C(=O)N[C@@H](Cc1ccccc1)C(=O)N[C@H](C(=O)N[C@@H](CCC(=O)O)C(=O)N[C@@H](Cc1ccc(O)cc1)C(=O)N[C@@H](CC(C)C)C(=O)N[C@H](C(=O)N[C@@H](CCC(=O)O)C(=O)NCC(=O)NCC(N)=O)[C@@H](C)CC)[C@@H](C)CC) [Example 72],0.715,0.252,0.0645,0.906
Y[Aib]EGTFTSDYSILLDKIAQ[Aib]AFIEYLIK([AEEA-AEEA-γGlu-C20 diacid])GG-NH2 (N-terminus assumed; SMILES CC[C@H](C)[C@H](NC(=O)[C@H](CCCCN)NC(=O)[C@H](CC(=O)O)NC(=O)[C@H](CC(C)C)NC(=O)[C@H](CC(C)C)NC(=O)[C@@H](NC(=O)[C@H](CO)NC(=O)[C@H](Cc1ccc(O)cc1)NC(=O)[C@H](CC(=O)O)NC(=O)[C@H](CO)NC(=O)[C@@H](NC(=O)[C@H](Cc1ccccc1)NC(=O)[C@@H](NC(=O)CNC(=O)[C@H](CCC(=O)O)NC(=O)C(C)(C)NC(=O)[C@@H](N)Cc1ccc(O)cc1)[C@@H](C)O)[C@@H](C)O)[C@@H](C)CC)C(=O)N[C@@H](C)C(=O)N[C@@H](CCC(N)=O)C(=O)NC(C)(C)C(=O)N[C@@H](C)C(=O)N[C@@H](Cc1ccccc1)C(=O)N[C@H](C(=O)N[C@@H](CCC(=O)O)C(=O)N[C@@H](Cc1ccc(O)cc1)C(=O)N[C@@H](CC(C)C)C(=O)N[C@H](C(=O)N[C@@H](CCCCNC(=O)COCCOCCNC(=O)COCCOCCNC(=O)CC[C@H](NC(=O)CCCCCCCCCCCCCCCCCCC(=O)O)C(=O)O)C(=O)NCC(=O)NCC(N)=O)[C@@H](C)CC)[C@@H](C)CC) [Example 73],0.174,0.979,0.0225,2.55
YXEGTFTSDYSIXLDKKAQXAXIEYLIEGGPSSGAPPPS (not fully specified; Aib2; αMeF13 as printed (likely αMeL13); K17((2-[2-(2-Amino-ethoxy)-ethoxy]-acetyl)2-(γ-Glu)-CO-(CH2)18-CO2H); Aib20; αMeF22; C-terminal NH2) [Example 74],1.7,0.0866,0.115,0.467
YXEGTFTSDYSILLDKKAQXAFIXYLIEGGPSSGAPPPS (Aib2; K17((2-[2-(2-Amino-ethoxy)-ethoxy]-acetyl)2-(γ-Glu)-CO-(CH2)18-CO2H); Aib20; D-Glu24; C-terminal NH2) [Example 84],1.59,0.0915,0.173,0.374
XAEGTFTSDYSILLDKKAQXAFIEYLIEGGPSSGAPPPS (N-terminal Ac; D-Tyr1; K17((2-[2-(2-Amino-ethoxy)-ethoxy]-acetyl)2-(γ-Glu)-CO-(CH2)18-CO2H); Aib20; C-terminal NH2) [Example 79],2.11,0.0732,0.041,2.02
XXEGTFTSDYSILLDKKAQXAFIEYLIEGGPSSGAPPPS (D-Tyr1; Aib2; K17((2-[2-(2-Amino-ethoxy)-ethoxy]-acetyl)2-(γ-Glu)-CO-(CH2)18-CO2H); Aib20; C-terminal NH2) [Example 78],0.293,0.532,0.143,0.544
YXEGTXTSDYSIXLDKKAQXAXIEYLIEGGPSSGAPPPS (not fully specified; Aib2; αMeF6; αMeF13 as printed (likely αMeL13); K17((2-[2-(2-Amino-ethoxy)-ethoxy]-acetyl)2-(γ-Glu)-CO-(CH2)18-CO2H); Aib20; αMeF22; C-terminal NH2) [Example 76],1.24,0.124,0.63,0.125
YXEGTFTSDYSIXLDKKAQXAFIEYXIEGGPSSGAPPPS (not fully specified; Aib2; αMeF13 as printed (likely αMeL13); K17((2-[2-(2-Amino-ethoxy)-ethoxy]-acetyl)2-(γ-Glu)-CO-(CH2)18-CO2H); Aib20; αMeF26 as printed (likely αMeL26); C-terminal NH2) [Example 75],0.69,0.214,0.0359,1.49
YXEGTFTSDYSILLDKKAQXAFIEYLIXGGPSSGAPPPS (Aib2; K17((2-[2-(2-Amino-ethoxy)-ethoxy]-acetyl)2-(γ-Glu)-CO-(CH2)18-CO2H); Aib20; D-Glu28; C-terminal NH2) [Example 83],0.804,0.182,0.166,0.387
YXEGTFTSDYSXLLDKKAQXAFIEYLIEGGPSSGAPPPS (Aib2; D-Ile12; K17((2-[2-(2-Amino-ethoxy)-ethoxy]-acetyl)2-(γ-Glu)-CO-(CH2)18-CO2H); Aib20; C-terminal NH2) [Example 82],0.00679,24.3,0.00325,26.1
YXEGTFTSDYXILLDKKAQXAFIEYLIEGGPSSGAPPPS (Aib2; D-Ser11; K17((2-[2-(2-Amino-ethoxy)-ethoxy]-acetyl)2-(γ-Glu)-CO-(CH2)18-CO2H); Aib20; C-terminal NH2) [Example 81],0.373,0.428,0.063,1.29
